In doi:10.1101/2024.06.02.597006 (bioRxiv, 2024):

Experiments:
[1] = target: the molecule itself; assay: cryo-EM structure
[2] = target: T1, Pex5 (full-length yeast Pex5, 1-612), His-Sumo cleaved off (Saccharomyces cerevisiae, UniProt P35056 1-612); assay: cryo-EM structure
T1 sequence (looked up): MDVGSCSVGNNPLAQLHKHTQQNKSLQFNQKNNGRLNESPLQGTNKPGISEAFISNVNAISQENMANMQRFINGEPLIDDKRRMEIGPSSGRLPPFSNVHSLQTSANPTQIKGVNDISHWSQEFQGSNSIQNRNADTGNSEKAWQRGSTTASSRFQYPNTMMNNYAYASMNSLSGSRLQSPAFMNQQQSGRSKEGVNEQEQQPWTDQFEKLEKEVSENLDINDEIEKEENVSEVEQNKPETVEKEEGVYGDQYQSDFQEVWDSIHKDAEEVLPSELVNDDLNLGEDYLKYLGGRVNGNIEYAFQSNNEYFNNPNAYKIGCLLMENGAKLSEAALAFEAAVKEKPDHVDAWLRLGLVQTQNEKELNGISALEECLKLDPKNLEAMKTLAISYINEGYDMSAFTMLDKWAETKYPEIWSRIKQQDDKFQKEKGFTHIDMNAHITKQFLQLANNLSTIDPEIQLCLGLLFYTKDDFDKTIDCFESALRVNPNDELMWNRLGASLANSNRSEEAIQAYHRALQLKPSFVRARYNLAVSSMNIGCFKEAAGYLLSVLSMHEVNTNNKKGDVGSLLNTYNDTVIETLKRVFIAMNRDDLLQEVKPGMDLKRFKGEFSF

stoichiometry N [2]: 6 Eci1 per Pex5
B1: FLAG-Eci1 (yeast delta3, delta2-Enoyl-CoA Isomerase 1) (enzyme, Saccharomyces cerevisiae (yeast), UniProt Q05871 1-280, looked up)
chain: MSQEIRQNEKISYRIEGPFFIIHLMNPDNLNALEGEDYIYLGELLELADRNRDVYFTIIQSSGRFFSSGADFKGIAKAQGDDTNKYPSETSKWVSNFVARNVYVTDAFIKHSKVLICCLNGPAIGLSAALVALCDIVYSINDKVYLLYPFANLGLITEGGTTVSLPLKFGTNTTYECLMFNKPFKYDIMCENGFISKNFNMPSSNAEAFNAKVLEELREKVKGLYLPSCLGMKKLLKSNHIDAFNKANSVEVNESLKYWVDGEPLKRFRQLGSKQRKHRL
stoichiometry N [1]: 6
